Laboratory results taken from publication PMC3332083 (Biochemistry, 2012).

Tests used:
[1] = target: the molecule itself; test: dynamic light scattering
[2] = target: the molecule itself; test: SEC

B1: Carboxy-terminal truncated SAA2.2 (SAA2.2ΔC), truncated after the ninetieth amino acid residue (domain or fragment, mouse (CE/J strain), UniProt P05367 20-109, looked up)
chain: GFFSFVHEAFLGAGDMWRAYTDMKEAGWKDGDKYFHARGNYDAAQRGPGGVWAAEKISDGREAFQEFFGRGHEDTMADQEANRHGRSGKD
For B1, the “stoichiometry N” value [1] was 70 to 170 subunits.

B2: Serum amyloid A isoform SAA2.2 from the CE/J mouse strain, full-length (103 amino acids) (natural protein, mouse (CE/J strain), UniProt P05367 20-122, looked up)
chain: GFFSFVHEAFLGAGDMWRAYTDMKEAGWKDGDKYFHARGNYDAAQRGPGGVWAAEKISDGREAFQEFFGRGHEDTMADQEANRHGRSGKDPNYYRPPGLPDKY
For B2, the “stoichiometry N” value [2] was 8 subunits.
